# Laboratory results: US20130202609
# Target: interleukin-8 (IL-8; CXCL8)
protein,measurement,value
"GAS57 double mutant D151A+S617A, His-tagged (protein) ADELSTMSEPTITNHAQQQAQHLTNTELSSAESKSQDTSQITLKTNREKEQSQDLVSEPTTTELADTDAASMANTGSDATQKSASLPPVNTDVHDWVKTKGAWDKGYKGQGKVVAVIATGIDPAHQSMRISDVSTAKVKSKEDMLARQKAAGINYGSWINDKVVFAHNYVENSDNIKENQFEDFDEDWENFEFDAEAEPKAIKKHKIYRPQSTQAPKETVIKTEETDGSHDIDWTQTDDDTKYESHGMHVTGIVAGNSKEAAATGERFLGIAPEAQVMFMRVFANDIMGSAESLFIKAIEDAVALGADVINLSLGTANGAQLSGSKPLMEAIEKAKKAGVSVVVAAGNERVYGSDHDDPLATNPDYGLVGSPSTGRTPTSVAAINSKWVIQRLMTVKELENRADLNHGKAIYSESVDFKDIKDSLGYDKSHQFAYVKESTDAGYNAQDVKGKIALIERDPNKTYDEMIALAKKHGALGVLIFNNKPGQSNRSMRLTANGMGIPSAFISHEFGKAMSQLNGNGTGSLEFDSVVSKAPSQKGNEMNHFSNWGLTSDGYLKPDITAPGGDIYSTYNDNHYGSQTGTAMASPQIAGASLLVKQYLEKTQPNLPKEKIADIVKNLLMSNAQIHVNPETKTTTSPRQQGAGLLNIDGAVTSGLYVTGKDNYGSISLGNITDTMTFDVTVHNLSNKDKTLRYDTELLTDHVDPQKGRFTLTSHSLKTYQGGEVTVPANGKVTVRVTMDVSQFTKELTKQMPNGYYLEGFVRFRDSQDDQLNRVNIPFVGFKGQFENLAVAEESIYRLKSQGKTGFYFDESGPKDDIYVGKHFTGLVTLGSETNVSTKTISDNGLHTLGTFKNADGKFILEKNAQGNPVLAISPNGDNNQDFAAFKGVFLRKYQGLKASVYHASDKEHKNPLWVSPESFKGDKNFNSDIRFAKSTTLLGTAFSGKSLTGAELPDGHYHYVVSYYPDVVGAKRQEMTFDMILDRQKPVLSQATFDPETNRFKPEPLKDRGLAGVRKDSVFYLERKDNKPYTVTINDSYKYVSVEDNKTFVERQADGSFILPLDKAKLGDFYYMVEDFAGNVAIAKLGDHLPQTLGKTPIKLKLTDGNYQTKETLKDNLEMTQSDTGLVTNQAQLAVVHRNQPQSQLTKMNQDFFISPNEDGNKDFVAFKGLKNNVYNDLTVNVYAKDDHQKQTPIWSSQAGASVSAIESTAWYGITARGSKVMPGDYQYVVTYRDEHGKEHQKQYTISVNDKKPMITQGRFDTINGVDHFTPDKTKALDSSGIVREEVFYLAKKNGRKFDVTEGKDGITVSDNKVYIPKNPDGSYTISKRDGVTLSDYYYLVEDRAGNVSFATLRDLKAVGKDKAVVNFGLDLPVPEDKQIVNFTYLVRDADGKPIENLEYYNNSGNSLILPYGKYTVELLTYDTNAAKLESDKIVSFTLSADNNFQQVTFKITMLATSQITAHFDHLLPEGSRVSLKTAQDQLIPLEQSLYVPKAYGKTVQEGTYEVVVSLPKGYRIEGNTKVNTLPNEVHELSLRLVKVGDASDSTGDHKVMSKNNSQALTASATPT","IL-8 cleavage, SDS-PAGE with silver staining, 24 hours","unable to cleave IL-8, even at a 100-fold higher concentration than wild-type GAS57"
same,"uncleaved IL-8 after 24 h incubation, ELISA",the mutants release 100% of uncleaved IL-8 after 24 h incubation
